{"source": "patent US6805861B2", "about": "“Immunotherapy using cytotoxic T lymphocytes (CTL)” (Imperial College Innovations Limited, priority 1996, dated 2004)", "key": {"H-2K^b class I molecules": {"target": "T1, H-2K^b class I molecules (Mus musculus, UniProt P01901)", "T1 sequence (P01901 22-369)": "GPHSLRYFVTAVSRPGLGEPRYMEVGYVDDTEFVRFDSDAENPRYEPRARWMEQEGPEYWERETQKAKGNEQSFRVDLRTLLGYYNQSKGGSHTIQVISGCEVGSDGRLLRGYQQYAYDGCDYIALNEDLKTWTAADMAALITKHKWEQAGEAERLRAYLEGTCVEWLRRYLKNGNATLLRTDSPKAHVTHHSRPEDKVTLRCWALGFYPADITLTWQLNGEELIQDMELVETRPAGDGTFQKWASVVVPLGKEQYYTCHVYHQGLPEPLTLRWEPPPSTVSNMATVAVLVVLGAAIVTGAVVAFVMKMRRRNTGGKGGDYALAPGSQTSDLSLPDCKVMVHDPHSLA", "T1 sequence (P01887 21-119 partner)": "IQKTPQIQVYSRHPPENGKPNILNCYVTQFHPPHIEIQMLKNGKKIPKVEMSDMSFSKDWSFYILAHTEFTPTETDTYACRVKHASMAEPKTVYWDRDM", "assay": "Binding of peptide to H-2K^b class I molecules", "experimental": "Peptides: The mdm100 peptide corresponds to amino acid 100-107 (YAMIYRNL; SEQ ID No 1) of the murine mdm-2 protein. […] All peptides used in this study were synthesised by the central peptide synthesis laboratory of the Imperial Cancer Research Fund, London, using finoc chemistry. The quality of the peptides were assessed by HPLC analysis and the expected molecular weight was observed using MALDI mass-spectrometry. The peptides were dissolved in phosphate buffered saline (pH 7.4) to give a concentration of 2 mM and stored at −20° C."}, "[1]": {"assay": "CTL stimulation by mdm100 peptide in C57BL/6 mice", "type": "in vivo, mouse", "details": "self-restricted repertoire"}}, "note": "Like-named read-outs stand apart in the source and are kept apart here."}
{"sequence": "YAMIYRNL [mdm100 peptide]", "values": [{"measurement": "binding to H-2K^b class I molecules", "setting": "H-2K^b class I molecules", "result": "bound efficiently"}, {"measurement": "binding to H-2K^b class I molecules", "setting": "H-2K^b class I molecules; listed as mdm100", "result": "efficiently bound"}, {"measurement": "CTL stimulated by the peptide in C57BL/6 mice (H-2^b)", "setting": "[1]", "result": "only stimulated low avidity CTL"}]}
